Data on seven molecules can be found in patent US20220184120A1 (MINERVA BIOTECHNOLOGIES, published 2022).

B1: N-10 peptide (PSMGFR minus 10 amino acids from the N-terminus) (peptide)
peptide: QFNQYKTEAASRYNLTISDVSVSDVPFPFSAQSGA
notes: also called N-10 PSMGFR; PSMGFR N-10
B7: PSMGFR peptide (Primary Sequence of the MUC1 Growth Factor Receptor) (peptide)
peptide: GTINVHDVETQFNQYKTEAASRYNLTISDVSVSDVPFPFSAQSGA
notes: synthetic peptide immobilised on ELISA plates; also called MUC1* peptide; MUC1* extra cellular domain peptide

Assay [1] concerns the target T1, NME7-AB (recombinant) (Homo sapiens (Human), UniProt Q9Y5B8 92-376).
T1 construct: the entry ends in a His tag; also called NM23-H7
T1 sequence: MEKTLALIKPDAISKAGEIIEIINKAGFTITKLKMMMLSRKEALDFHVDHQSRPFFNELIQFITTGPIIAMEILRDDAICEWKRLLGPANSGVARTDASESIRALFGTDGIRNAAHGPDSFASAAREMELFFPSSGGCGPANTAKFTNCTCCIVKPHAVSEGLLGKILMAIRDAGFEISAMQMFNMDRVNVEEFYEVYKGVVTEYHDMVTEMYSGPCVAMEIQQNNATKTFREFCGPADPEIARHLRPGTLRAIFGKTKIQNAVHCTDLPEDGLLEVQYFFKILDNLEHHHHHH
Put plainly: ELISA (FIG. 2A-2D). As to the method:
(§1) FIGS. 2A-2I show results of ELISA assays. MUC1* peptides PSMGFR, PSMGFR minus 10 amino acids from the N-terminus aka N−10, or PSMGFR minus 10 amino acids from the C-terminus, aka C−10 are immobilized on the plate and the following are assayed for binding: NME7-AB (FIG. 2A), MN-C2 monoclonal antibody (FIG. 2B), MN-E6 monoclonal antibody (FIG. 2C), or dimeric NME1 (FIG. 2D). […] MUC1* peptides PSMGFR minus 10 amino acids from the N-terminus aka N−10, or PSMGFR minus 10 amino acids from the C-terminus, aka C−10, are immobilized on the plate and the following are assayed for binding: MN-C3 (FIG. 2E) and MN-C8 (FIG. 2F).
In general terms: ELISA stands for enzyme-linked immunosorbent assay.

Assay [2] addresses B1. Nature of the assay: ELISA (FIG. 2B-2C).
Assay [3] deals with T2, N+20/C-27 peptide (20 amino acids added onto the N-terminus and 27 deleted from the C-terminus of PSMGFR).
T2 peptide: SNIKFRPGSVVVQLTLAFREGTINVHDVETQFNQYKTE
Nature of the assay: ELISA (FIG. 63). As to the method: (§2) ELISA assays were performed to determine if, in addition to recognizing their immunizing peptide, they recognized PSMGFR, N−10 or C−10. In addition, they were tested for their ability to bind to N+20/C−27, N+9/C−9. We first did the ELISA assay on our set of reference antibodies, MNC2, MNE6, which we know are cancer-specific plus MNC3, which we know recognizes stem cells and progenitor cells (FIG. 63A-63B). None of the reference antibodies bound to the N+20/C−27 peptide. MNC2 and MNE6 cannot bind to PSMGFR peptides with 27, 10 or 9 C-terminal deletions, however, MNC3 binds to C−10 and to N+9/C−9 peptides.

The target in assay [4] is T3, N+9/C-9 peptide (9 amino acids added onto the N-terminus and 9 deleted from the C-terminus of PSMGFR).
T3 peptide: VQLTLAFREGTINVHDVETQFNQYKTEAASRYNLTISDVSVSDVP
Nature of the assay: ELISA (FIG. 64A).

Assay [5] deals with T4, C-10 peptide (PSMGFR minus 10 amino acids from the C-terminus).
T4 construct: also called C-10 PSMGFR; PSMGFR C-10
T4 peptide: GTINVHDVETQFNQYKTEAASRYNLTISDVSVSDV
Nature of the assay: ELISA (FIG. 64A).

Assay [6] deals with B7. Put plainly: ELISA (FIG. 2B).
Assay [7] deals with B7. Put plainly: ELISA.
Assay [8] addresses T4, C-10 peptide (PSMGFR minus 10 amino …). Put plainly: ELISA.
Assay [9] concerns the target B1. Nature of the assay: ELISA.
The target in assay [10] is T2, N+20/C-27 peptide (20 amino acids added …). Nature of the assay: ELISA (FIG. 64A).
Assay [11] concerns the target B7. Put plainly: ELISA (FIG. 9).
For assay [12], the target named is B1. Nature of the assay: Table 4 criterion 1, Binds N-10.
Assay [13] has as its target T3, N+9/C-9 peptide (9 amino acids added …). Nature of the assay: ELISA (FIG. 63). The procedure: as §2
For assay [14], the target named is T4, C-10 peptide (PSMGFR minus 10 amino …). Put plainly: ELISA (FIG. 2E). As to the method:
as §1

In the next assay the target is T5, N-19/C-5 peptide.
T5 peptide: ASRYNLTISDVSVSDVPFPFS
Put plainly: ELISA (FIG. 69). As to the method:
(§3) In order to further refine the epitopes to which each antibody binds, a series of smaller peptides derived from the PSMGFR sequence were synthesized: N−30 (SEQ ID NO:7), N−26 (SEQ ID NO:6), N−19 (SEQ ID NO:4), N−10/C−5 (SEQ ID NO:8), N−19/C−5 (SEQ ID NO:9). Each of the antibodies was tested in an ELISA assay for their ability to bind to this refined set of peptides, plus PSMGFR, N−10 and C−10 peptides (FIG. 67-69).

A further assay has as its target T6, N-26 peptide.
T6 peptide: ISDVSVSDVPFPFSAQSGA
Nature of the assay: ELISA (FIG. 69). As to the method: as §3

Assay [15] has as its target B1. Nature of the assay: ELISA (FIG. 69). The procedure:
as §3

A further assay has as its target T7, N-19 peptide.
T7 peptide: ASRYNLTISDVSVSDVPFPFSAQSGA
Put plainly: ELISA (FIG. 69). As to the method:
as §3

The next assay has as its target T8, N-30 peptide.
T8 peptide: SVSDVPFPFSAQSGA
Nature of the assay: ELISA (FIG. 69). As to the method:
as §3

The next assay deals with T9, N-10/C-5 peptide.
T9 peptide: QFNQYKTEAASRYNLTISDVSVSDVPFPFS
Nature of the assay: ELISA (FIG. 69). As to the method: as §3

The target in assay [16] is T1, NME7-AB (recombinant). Nature of the assay: ELISA (FIG. 2A). The procedure:
as §1

Turning to B1, in the assay with NME7-AB (recombinant) [1], the binding result is “binds”.

B2: MN-C2 mouse monoclonal anti-MUC1* antibody (antibody, V domains shown)
VH: EVQLEESGGGLVKPGGSLKLSCAASGFTFSGYAMSWVRQTPEKRLEWVATISSGGTYIYYPDSVKGRFTISRDNAKNTLYLQMSSLRSEDTAMYYCARLGGDNYYEYFDVWGAGTTVTVSS
VL: DIVITQSTASLGVSLGQRATISCRASKSVSTSGYSYMHWYQQRPGQPPKLLIYLASNLESGVPARFSGSGSGTDFTLNIHPVEEEDAATYYCQHSRELPFTFGGGTKLEIKR
notes: mouse monoclonal raised against PSMGFR; also called Min-C2
On to B2, for which the binding result in [2] is “binds”; in [3], “no binding”; in [4], “no binding”; in [5], “no binding”; in assay [6], “binds”.

B3: 18B4 mouse monoclonal antibody (antibody, V domains shown)
VH: EVKLEESGGGLVQPGGSMKLSCAASGFTFNDAWMDWVRQSPEKGLEWVAEIRSTANIHTTYYAESVQGRFTISRDDSKSSVYLQMNSLRAEDTGIYYCTPLLYGFAYWGQGTLVTVSA
VL: DVVMTQSPLSLPVSLGDQASISCRTSQSLVHSNGNTYLHWHLQKPGQSPKVLIYKVSSRFSGVPDRFSGSGSGTDFTLKISRVEAEDLGVYFCSQNTHVPYTFGGGTKLEIK
notes: raised against PSMGFR; also called anti-PSMGFR antibody 18B4
B3: the binding result in [7] is “binds”; in assay [8] it was “binds”; in assay [9], “no binding”; in assay [4] it was “binds”; in assay [10], “binds”.

B4: 20A10 mouse monoclonal antibody (antibody, V domains shown)
VH: EVMLVESGGGLVKPGGSLKLSCAASGFTFSTYAMSWIRQTPEKRLEWVASIGRAGSTYYSDSVKGRFTISRDNVRNILYLQMSSLRSEDTAMYYCARGPIYNDYDEFAYWGQGTLVTVSA
VL: NIMMTQSPSSLAVSAGEKVTMSCKSSQSVLYSSNQKNYLAWYQQKPGQSPKLLIYWASTRESGVPDRFTGSGSGTDFTLTISSVQAEDLAVYYCHQYLSSLTFGAGTKLELK
notes: raised against PSMGFR; also called MN-20A10; anti-PSMGFR antibody 20A10
As to B4, the binding result is “binds” in [7], “binds” in [9], “no binding” in assay [4] and “no binding” in [5].

B5: MN-C3 mouse monoclonal anti-MUC1* antibody (antibody, V domains shown)
VH: QVQLQQSGPELVRPGVSVKISCKGSGYRFTDYAMNWVKQSHAKSLEWIGVISTFSGNTNFNQKFKGKATMTVDKSSSTAYMELARLTSEDSAMYYCARSDYYGPYFDYWGQGTTLTVSS
VL: DVLMTQTPLSLPVSLGDQASISCRSSQTIVHSNGNTYLEWYLQKPGQSPKLLIYKVSNRFSGVPDRFSGSGSGTDFTLKINRVEAEDLGVYYCFQGSHVPFTFGSGTKLEIK
notes: mouse monoclonal raised against PSMGFR; also called Min-C3
B5: the binding result in [11] is recorded as “binds”; in assay [12], “binds”; in assay [13] it was “binds”; in assay [3], “no binding”; in assay [14] it was “binds”.

B6: 17H6 mouse monoclonal antibody (antibody, V domains shown)
VH: EVKLVESGGGLVQPGGSLRLSCATSGFTFTDYYMSWVRQPPRKALEWLGFIRNKANGYTAEYSASVKGRFTISRDVSQNLLYLQMNILRAEDSATYYCAKDYYGSNPAWFAYWGQGTLVTVSA
VL: DILMTQTPLSLPVSLGDQASISCRSSQSIVHSSGNTFLEWYLQKPGQSPKLLIYKVSNRFSGVPDRFSGSGSGIDFTLKISRVEAEDLGVYYCFQGSHVPFTFGSGTKLEIK
notes: raised against N+9/C-9; also called N+9/C-9 antibody 17H6
For B6, the binding result (with N-19/C-5 peptide; with N-26 peptide; in [15]; with N-19 peptide; with N-30 peptide; with N-10/C-5 peptide) was “no binding” in each case.
For B7, the binding result with NME7-AB (recombinant) [16] is on record as “binds”.
